Test results from publication PMC4672726.

Biological target: hemagglutinin (HA)–tagged FERONIA (FER-HA) (Arabidopsis thaliana) (UniProt Q9SCZ4)
Assay: co-IP

Chain of hemagglutinin (HA)–tagged FERONIA (FER-HA) (Arabidopsis thaliana) (Q9SCZ4 28-895): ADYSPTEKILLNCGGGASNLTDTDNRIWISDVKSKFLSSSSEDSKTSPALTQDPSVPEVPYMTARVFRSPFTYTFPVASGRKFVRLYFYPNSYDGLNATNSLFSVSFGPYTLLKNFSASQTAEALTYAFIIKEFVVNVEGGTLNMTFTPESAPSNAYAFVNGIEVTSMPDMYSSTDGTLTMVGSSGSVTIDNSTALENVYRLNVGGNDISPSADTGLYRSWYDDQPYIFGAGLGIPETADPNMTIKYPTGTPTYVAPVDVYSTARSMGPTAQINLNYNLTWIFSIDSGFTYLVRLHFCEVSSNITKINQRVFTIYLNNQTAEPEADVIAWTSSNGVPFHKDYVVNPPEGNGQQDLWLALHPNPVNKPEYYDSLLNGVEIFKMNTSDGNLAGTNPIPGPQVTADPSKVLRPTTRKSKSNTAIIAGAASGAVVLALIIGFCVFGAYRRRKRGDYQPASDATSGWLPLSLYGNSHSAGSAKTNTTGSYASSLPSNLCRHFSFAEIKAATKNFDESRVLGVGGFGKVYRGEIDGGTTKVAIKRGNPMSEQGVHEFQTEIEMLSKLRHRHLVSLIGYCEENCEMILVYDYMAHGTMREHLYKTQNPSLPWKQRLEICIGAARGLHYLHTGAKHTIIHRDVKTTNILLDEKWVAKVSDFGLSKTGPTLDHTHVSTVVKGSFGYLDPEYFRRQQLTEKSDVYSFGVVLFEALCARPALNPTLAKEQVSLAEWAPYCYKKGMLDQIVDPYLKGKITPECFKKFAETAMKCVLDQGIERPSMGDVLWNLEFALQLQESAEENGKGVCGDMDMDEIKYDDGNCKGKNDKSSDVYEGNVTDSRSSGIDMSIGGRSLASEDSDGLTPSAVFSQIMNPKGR

Substance “HisRALF (RALF, rapid alkalinization factor, N-terminal 6×His fusion peptide) (from UniProt Q9SRY3 72-120)” has a fold binding over the inactive analog HisRALF(Δ2–8) of 4.5 to 6 fold.
